Source: patent US9994881B2, “Functionalized carboxylic acids and alcohols by reverse fatty acid oxidation in engineered microbes” (William Marsh Rice University, priority 2011, dated 2018)

Key:
[1] = substrate: CC(=O)CC(=O)SCCNC(=O)CCNC(=O)[C@H](O)C(C)(C)COP(=O)(O)OP(=O)(O)OC[C@H]1O[C@@H](n2cnc3c(N)ncnc32)[C@H](O)[C@@H]1OP(=O)(O)O; assay: purified protein, by the assay type; conditions: 25° C.
[2] = substrate: CC(=O)SCCNC(=O)CCNC(=O)[C@H](O)C(C)(C)COP(=O)(O)OP(=O)(O)OC[C@H]1O[C@@H](n2cnc3c(N)ncnc32)[C@H](O)[C@@H]1OP(=O)(O)O; assay: purified protein, by the assay type; conditions: 25° C.
[3] = substrate: C/C=C/C(=O)SCCNC(=O)CCNC(=O)[C@H](O)C(C)(C)COP(=O)(O)OP(=O)(O)OC[C@H]1O[C@@H](n2cnc3c(N)ncnc32)[C@H](O)[C@@H]1OP(=O)(O)O; assay: Crotonyl-CoA reductase kinetics (loss of NADH absorbance); type: biochemical, Euglena gracilis; conditions: other: NADH as co-factor, 0.2 mM NADH, pH 7.5, 25° C.
From the text: For AtoB and thioesterase characterization assays, the pCA24N-gene (-gfp) plasmids from the ASKA collection^44 were used. For expression of E. gracilis TER for kinetic characterization, the egTER gene was cloned into pTrcHis2A using the In-Fusion protocol (Clontech Laboratories, Inc., Mountain View, Calif.) following PCR amplification from the aforementioned codon-optimized egTER containing plasmid with the primer pair of F1pTH6hisEgter and R1pTH6hisEgter (Supplementary Table S3).
(§1) Cultures for enzymatic assays were grown overnight in 100 mL of LB media at 37° C. in 250 mL baffled flasks (Wheaton Industries, Inc., Millville, N.J.) in E. coli BL21 (DE3) cells induced with either 1 mM IPTG (pCA24N, pTrcHis2A) or 1 mM Arabinose (pUCBB-pBAD) at an OD600˜0.6, or expressed constitutively (pUCBB-ntH6). Reactions were monitored on either a Synergy HT plate reader (BioTek Instruments, Inc., Winooski, Vt.) at 25° C. (for reactions monitored at 300 nm or higher) or in a Biomate 5 Spectrophotometer (Thermo Scientific, Waltham, Mass.) for reactions at 263 nm. […]
(§2) For kinetic characterization, his-tagged proteins of AtoB, FadA, FadB, caHBD, egTER were purified from the B-PER supernatant fractions using Talon Metal Affinity Resin (Clontech Laboratories, Inc., Mountain View, Calif.) using gravity purification. […] Enzyme concentration was established by measuring the absorbance at […] and extinction coefficients predicted for each enzyme by the ProtParam program (web.expasy.org/protparam/).
For kinetic characterization, an appropriate amount of enzyme was established by checking linear range near predicted KM values. Then, the rates were measured for a range of substrates in order to establish kcat and KM. In the cases of FadB for the crotonase reaction and FadA in the “forward” thiolase reaction coupled with HBD, substrate saturation could not be established, as such, the kcat/KM for the reaction was determined by dividing the linear slope of Velocity vs. [Substrate] by the amount of enzyme used in the assays. […]

[4] = substrate: CC(=O)CC(=O)SCCNC(=O)CCNC(=O)[C@H](O)C(C)(C)COP(=O)(O)OP(=O)(O)OC[C@H]1O[C@@H](n2cnc3c(N)ncnc32)[C@H](O)[C@@H]1OP(=O)(O)O; assay: 3-Hydroxyacyl-CoA (β-hydroxybutyryl-CoA) dehydrogenase kinetics (oxidation of NADH at 340 nm); type: biochemical, Escherichia coli; conditions: other: NADH dependent reduction, pH 7.5, 0.2 mM NADH, 25° C.
From the text: (§3) For enzyme characterization, E. coli fadA and fadB genes were cloned from MG1655 genomic DNA into the pUCBB-ntH6 vector^43 to yield a constitutively expressed gene with a n-terminal 6 His-tag that can be cleaved by Thrombin. fadA was amplified as two halves with the primers fadANdeI5p:fadAmidrev (1st half) and fadAmidfor:fadANotI3p (2nd half) (Supplementary Table S3).
(§4) fadB was amplified in three parts with fadBNdeI5p:fadBmid1rev (1st part), fadBmid1for:fadBmid2rev (2nd part), and fadBmid2for:fadBNotI3p (3rd part) (Supplementary Table S3). fadA and fadB PCR products sections were combined by overlap extension PCR to yield the whole genes, which were subsequently digested with NdeI and NotI restriction enzymes and ligated into pUCBB-ntH6 that was previously digested with NdeI and NotI to yield pUCBB-ntH6-FadA and pUCBB-ntH6-FadB.
as §1, §2
(§5) For kinetic characterization, an appropriate amount of enzyme was established by checking linear range near predicted KM values. Then, the rates were measured for a range of substrates in order to establish kcat and KM. […]

[5] = substrate: C/C=C/C(=O)SCCNC(=O)CCNC(=O)[C@H](O)C(C)(C)COP(=O)(O)OP(=O)(O)OC[C@H]1O[C@@H](n2cnc3c(N)ncnc32)[C@H](O)[C@@H]1OP(=O)(O)O; assay: purified protein, by the assay type; conditions: other: pH 7.5, 200 mM KCl, DTNB, 25° C.
Method: (§6) Cells were lysed using Bacterial Protein Extraction Reagent (B-PER) (Thermo Scientific, Waltham, Mass.) as per the prescribed protocol in order to obtain the supernatant containing the active enzymes.
(§7) For kinetic characterization, an appropriate amount of enzyme was established by checking linear range near predicted KM values. Then, the rates were measured for a range of substrates in order to establish kcat and KM. In the cases of FadB for the crotonase reaction and FadA in the “forward” thiolase reaction coupled with HBD, substrate saturation could not be established, as such, the kcat/KM for the reaction was determined by dividing the linear slope of Velocity vs. [Substrate] by the amount of enzyme used in the assays. For reactions that could be saturated, Velocity vs. [Substrate] was fitted by the EnzKIN Matlab module (mathworks.com/matlabcentral/fileexchange/26653) to establish Vmax and KM.
(§8) Thioesterase activity was monitored by following the production of TNB at 412 nm (ε=4.3 mM^−1 cm^−1)^30. Reactions were carried out in the presence of 100 mM Tris pH 7.5, 200 mM KCl, 25 mM DTNB and 200 μM of the ‘-CoA’ substrate in a volume of 200 μL at 25° C.

[6] = substrate: CC(O)CC(=O)SCCNC(=O)CCNC(=O)[C@H](O)C(C)(C)COP(=O)(O)OP(=O)(O)OC[C@H]1O[C@@H](n2cnc3c(N)ncnc32)[C@H](O)[C@@H]1OP(=O)(O)O; assay: purified protein, by the assay type; conditions: other: pH 7.5, 200 mM KCl, DTNB, 25° C.
Method: as §6, §7, §8

[7] = substrate: CCCC(=O)SCCNC(=O)CCNC(=O)[C@H](O)C(C)(C)COP(=O)(O)OP(=O)(O)OC[C@H]1O[C@@H](n2cnc3c(N)ncnc32)[C@H](O)[C@@H]1OP(=O)(O)O; assay: purified protein, by the assay type; conditions: other: pH 7.5, 200 mM KCl, DTNB, 25° C.
Method: as §6, §7, §8

[8] = substrate: CC(=O)CC(=O)SCCNC(=O)CCNC(=O)[C@H](O)C(C)(C)COP(=O)(O)OP(=O)(O)OC[C@H]1O[C@@H](n2cnc3c(N)ncnc32)[C@H](O)[C@@H]1OP(=O)(O)O; assay: purified protein, by the assay type; type: biochemical, Escherichia coli; conditions: other: reverse direction, pH 7.5, 2 mM CoA, 25° C.
From the text: as §3, §4, §1, §2, §5

[9] = other: reverse direction, pH 7.5, 2 mM CoA
[10] = other: acetyl-CoA condensation, pH 7.5, 0.2 mM NADH
[11] = other: pH 7.5, 200 mM KCl, DTNB

B1: E. coli AtoB (thiolase), wild type, his-tagged (Escherichia coli K-12) (protein)
chain: MKNCVIVSAVRTAIGSFNGSLASTSAIDLGATVIKAAIERAKIDSQHVDEVIMGNVLQAGLGQNPARQALLKSGLAETVCGFTVNKVCGSGLKSVALAAQAIQAGQAQSIVAGGMENMSLAPYLLDAKARSGYRLGDGQVYDVILRDGLMCATHGYHMGITAENVAKEYGITREMQDELALHSQRKAAAAIESGAFTAEIVPVNVVTRKKTFVFSQDEFPKANSTAEALGALRPAFDKAGTVTAGNASGINDGAAALVIMEESAALAAGLTPLARIKSYASGGVPPALMGMGPVPATQKALQLAGLQLADIDLIEANEAFAAQFLAVGKNLGFDSEKVNVNGGAIALGHPIGASGARILVTLLHAMQARDKTLGLATLCIGGGQGIAMVIERLN
Km [1, 9]: 68.1 ± 2.56 µM | kcat [1, 9]: 9.23 s⁻¹ | kcat/Km [1, 9]: 136000 M⁻¹ s⁻¹ | Km [2, 10]: 892.0 ± 56.5 µM | kcat [2, 10]: 3.17 s⁻¹ | kcat/Km [2, 10]: 3550 M⁻¹ s⁻¹

B2: Euglena gracilis trans-2-enoyl-CoA reductase egTER (AAW66853.1), his-tagged (Euglena gracilis) (protein)
chain: VPQMAEGFSGEATSAWAAAGPQWAAPLVAAASSALALWWWAARRSVRRPLAALAELPTAVTHLAPPMAMFTTTAKVIQPKIRGFICTTTHPIGCEKRVQEEIAYARAHPPTSPGPKRVLVIGCSTGYGLSTRITAAFGYQAATLGVFLAGPPTKGRPAAAGWYNTVAFEKAALEAGLYARSLNGDAFDSTTKARTVEAIKRDLGTVDLVVYSIAAPKRTDPATGVLHKACLKPIGATYTNRTVNTDKAEVTDVSIEPASPEEIADTVKVMGGEDWELWIQALSEAGVLAEGAKTVAYSYIGPEMTWPVYWSGTIGEAKKDVEKAAKRITQQYGCPAYPVVAKALVTQASSAIPVVPLYICLLYRVMKEKGTHEGCIEQMVRLLTTKLYPENGAPIVDEAGRVRVDDWEMAEDVQQAVKDLWSQVSTANLKDISDFAGYQTEFLRLFGFGIDGVDYDQPVDVEADLPSAAQQ
Km [3]: 98.5 ± 7.7 µM | kcat [3]: 1.14 ± 0.08 s⁻¹ | kcat/Km [3]: 11600 M⁻¹ s⁻¹

B3: E. coli FadB (hydroxyacyl-CoA dehydrogenase / enoyl-CoA hydratase, NP_418288.1), wild type, his-tagged (Escherichia coli K-12) (protein)
chain: MLYKGDTLYLDWLEDGIAELVFDAPGSVNKLDTATVASLGEAIGVLEQQSDLKGLLLRSNKAAFIVGADITEFLSLFLVPEEQLSQWLHFANSVFNRLEDLPVPTIAAVNGYALGGGCECVLATDYRLATPDLRIGLPETKLGIMPGFGGSVRMPRMLGADSALEIIAAGKDVGADQALKIGLVDGVVKAEKLVEGAKAVLRQAINGDLDWKAKRQPKLEPLKLSKIEATMSFTIAKGMVAQTAGKHYPAPITAVKTIEAAARFGREEALNLENKSFVPLAHTNEARALVGIFLNDQYVKGKAKKLTKDVETPKQAAVLGAGIMGGGIAYQSAWKGVPVVMKDINDKSLTLGMTEAAKLLNKQLERGKIDGLKLAGVISTIHPTLDYAGFDRVDIVVEAVVENPKVKKAVLAETEQKVRQDTVLASNTSTIPISELANALERPENFCGMHFFNPVHRMPLVEIIRGEKSSDETIAKVVAWASKMGKTPIVVNDCPGFFVNRVLFPYFAGFSQLLRDGADFRKIDKVMEKQFGWPMGPAYLLDVVGIDTAHHAQAVMAAGFPQRMQKDYRDAIDALFDANRFGQKNGLGFWRYKEDSKGKPKKEEDAAVEDLLAEVSQPKRDFSEEEIIARMMIPMVNEVVRCLEEGIIATPAEADMALVYGLGFPPFHGGAFRWLDTLGSAKYLDMAQQYQHLGPLYEVPEGLRNKARHNEPYYPPVEPARPVGDLKTA
notes: assayed alone without FadA
Km [4]: 390.0 ± 19.2 µM | kcat [4]: 25.9 ± 1.2 s⁻¹ | kcat/Km [4]: 66500 M⁻¹ s⁻¹

B4: E. coli YciA (acyl-CoA thioesterase, NP_415769.1), wild type (Escherichia coli K-12) (protein)
chain: MSTTHNVPQGDLVLRTLAMPADTNANGDIFGGWLMSQMDIGGAILAKEIAHGRVVTVRVEGMTFLRPVAVGDVVCCYARCVQKGTTSVSINIEVWVKKVASEPIGQRYKATEALFKYVAVDPEGKPRALPVE
Km [5]: 1348.8 ± 235.5 µM | Km [1, 11]: 875.7 ± 180.9 µM | kcat [1, 11]: 265 ± 54.7 s⁻¹ | kcat/Km [1, 11]: 302000 M⁻¹ s⁻¹ | Km [2, 11]: 42.7 ± 1.2 µM | Km [6]: 353.8 ± 38.8 µM | Km [7]: 641.8 ± 91.9 µM | kcat [7]: 558 ± 79.6 s⁻¹ | kcat/Km [7]: 869000 M⁻¹ s⁻¹

B5: E. coli FadA (3-ketoacyl-CoA thiolase, YP_026272.1), wild type, his-tagged (Escherichia coli K-12) (protein)
chain: MEQVVIVDAIRTPMGRSKGGAFRNVRAEDLSAHLMRSLLARNPALEAAALDDIYWGCVQQTLEQGFNIARNAALLAEVPHSVPAVTVNRLCGSSMQALHDAARMIMTGDAQACLVGGVEHMGHVPMSHGVDFHPGLSRNVAKAAGMMGLTAEMLARMHGISREMQDAFAARSHARAWAATQSAAFKNEIIPTGGHDADGVLKQFNYDEVIRPETTVEALATLRPAFDPVNGMVTAGTSSALSDGAAAMLVMSESRAHELGLKPRARVRSMAVVGCDPSIMGYGPVPASKLALKKAGLSASDIGVFEMNEAFAAQILPCIKDLGLIEQIDEKINLNGGAIALGHPLGCSGARISTTLLNLMERKDVQFGLATMCIGLGQGIATVFERV
notes: assayed alone without FadB
Km [8]: 422.5 ± 57.3 µM | kcat [8]: 0.75 ± 0.09 s⁻¹ | kcat/Km [8]: 1770 M⁻¹ s⁻¹
